Consider one molecule from patent KR20230066722A (dated 2023).

For the assay, the target named is S275F RSV F protein (Synagis-resistant RSV antigen) (respiratory syncytial virus, UniProt P03420 26-524). Description: ratio of the ELISA Kd values, reference 11L.

B1: RSV Protein-1A12 Ab (antibody, V domains shown)
VH: EVQLVESGGGLVQPGGSLRLSCAASGFTFTSSWMSWVRQAPGKGLEWVSEIDGYNGSTYYADSVKGRFTISRDNSKNTLYLQMNSLRAEDTAVYYCARTVPWWGMDYWGQGTLVTVSS
VL: DIQMTQSPSSLSASVGDRVTITCRASQNISNYLAWYQQKPGKAPKLLIYLASSLESGVPSRFSGSGSGTDFTLTISSLQPEDFATYYCQQANSPPRTFGQGTKVEIK
notes: The ELISA detected the antibody with anti-human IgG Fc-HRP, so a human Fc is implied; also called 항체 1A12; 1A12 항체
For B1, the “fold higher affinity for S275F than for 11L” value was ~15 배 (fold).
